This note sets out measurements from the supplement of paper PMC6755084.

For the data set, the system named is F1*sub RNA substrate (template-directed ligation). Nature of the data set: fraction ligated after 30 min (ligated reads / total reads); higher = more ligase activity; sequences stand for … in GAGACCGCAACTGAAAAGTTGT…AGTTCTGCACGTAGAAGCAAAAGGC
Conditions: 42 °C. Put shortly: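 The ligase ribozyme variants were produced by PCR amplification of oligo-pool templates, T7 transcription and purification on gel. Their ligated and unligated forms were gel-separated, then reverse transcribed with barcoded primers before MiSeq sequencing. Core bases were filtered at a quality of ≥20, and fraction ligated per variant was ligated reads over total reads.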
In turn, TATACTTTCGTAGACACTTTGGATGGGTTGA [3d799] returned a fraction ligated of 0.268.

Consider TATACTTTCTAAGACACTTTGGATGGGTTGA [3d797], for which the fraction ligated worked out at 0.562.

TATACTTTGTAAGACACTTTGGATGGGTTGA [3d796] returned a fraction ligated of 0.74.

Sequence TATATGTCGTAAGACACTTTGGATGGGTTGA [3d758] had a fraction ligated of 0.57.

TATATTGCGTAAGACACTTTGGATGGGTTGA [3d760] showed a fraction ligated of 0.355.

With TATATTGTCGAAGACACTTTGGATGGGTTGA [3d763], the fraction ligated came out at 0.376.

As to TATATTGTCGTAAACACTTTGGATGGGTTGA [3d765], the fraction ligated worked out at 0.367.

In turn, TATATTGTCGTAAGAACTTTGGATGGGTTGA [3d767] returned a fraction ligated of 0.468.

On to TATATTGTCGTAAGACACTTGGATGGGTTGA [3d770], for which the fraction ligated is 0.641.

Consider TATATTGTCGTAAGACACTTTGATGGGTTGA [3d771], for which the fraction ligated turned out to be 0.288.

Sequence TATATTGTCGTAAGACACTTTGGAGGGTTGA [3d773] showed a fraction ligated of 0.0159.

Regarding TATATTGTCGTAAGACACTTTGGATGGGTTA [3d775], the fraction ligated amounted to 0.0168.

The sequence TATATTGTCGTAAGACACTTTGGATGGGTTG [3d776] showed a fraction ligated of 0.214.

With TATATTGTCGTAAGACACTTTGGATGGGTTGA [2d70], the fraction ligated was 0.61.

Sequence TATATTGTCGTAAGACACTTTGGATGGTTGA [3d774] showed a fraction ligated of 0.0779.

Sequence TATATTGTCGTAAGACACTTTGGTGGGTTGA [3d772] gave a fraction ligated of 0.0169.

TATATTGTCGTAAGACATTTGGATGGGTTGA [3d769] displayed a fraction ligated of 0.632.

In turn, TATATTGTCGTAAGACCTTTGGATGGGTTGA [3d768] had a fraction ligated of 0.468.

Regarding TATATTGTCGTAAGCACTTTGGATGGGTTGA [3d766], the fraction ligated worked out at 0.411.

In turn, TATATTGTCGTAGACACTTTGGATGGGTTGA [3d764] returned a fraction ligated of 0.499.

Turning to TATATTGTCTAAGACACTTTGGATGGGTTGA [3d762], the fraction ligated came out at 0.27.

With TATATTGTGTAAGACACTTTGGATGGGTTGA [3d761], the fraction ligated stood at 0.778.

In the case of TATATTTCGTAAGACACTTTGGATGGGTTGA [3d759], the fraction ligated came out at 0.245.

Take “TATCACGCGTAAGACACTTTGGATGGGTTGA [3d1294]”: the fraction ligated came to 0.814.

Regarding “TATCACGTCGAAGACACTTTGGATGGGTTGA [3d1297]”, the fraction ligated amounted to 0.781.

“TATCACGTCGTAAACACTTTGGATGGGTTGA [3d1299]” showed a fraction ligated of 0.787.

Regarding “TATCACGTCGTAAGAACTTTGGATGGGTTGA [3d1301]”, the fraction ligated was determined as 0.825.

Consider “TATCACGTCGTAAGACACTTGGATGGGTTGA [3d1304]”, for which the fraction ligated was 0.81.

With “TATCACGTCGTAAGACACTTTGATGGGTTGA [3d1305]”, the fraction ligated was 0.777.

Regarding “TATCACGTCGTAAGACACTTTGGAGGGTTGA [3d1307]”, the fraction ligated amounted to 0.104.

The sequence “TATCACGTCGTAAGACACTTTGGATGGGTTA [3d1309]” yielded a fraction ligated of 0.734.

The sequence “TATCACGTCGTAAGACACTTTGGATGGGTTG [3d1310]” gave a fraction ligated of 0.782.

In turn, “TATCACGTCGTAAGACACTTTGGATGGGTTGA [2d128]” displayed a fraction ligated of 0.791.

The sequence “TATCACGTCGTAAGACACTTTGGATGGTTGA [3d1308]” yielded a fraction ligated of 0.361.

Sequence “TATCACGTCGTAAGACACTTTGGTGGGTTGA [3d1306]” had a fraction ligated of 0.721.

“TATCACGTCGTAAGACATTTGGATGGGTTGA [3d1303]” showed a fraction ligated of 0.807.

As to “TATCACGTCGTAAGACCTTTGGATGGGTTGA [3d1302]”, the fraction ligated was determined as 0.786.

In the case of “TATCACGTCGTAAGCACTTTGGATGGGTTGA [3d1300]”, the fraction ligated amounted to 0.768.

On to “TATCACGTCGTAGACACTTTGGATGGGTTGA [3d1298]”, for which the fraction ligated stood at 0.801.

Sequence “TATCACGTCTAAGACACTTTGGATGGGTTGA [3d1296]” showed a fraction ligated of 0.772.

For “TATCACGTGTAAGACACTTTGGATGGGTTGA [3d1295]”, the fraction ligated came out at 0.829.

In turn, “TATCACTCGTAAGACACTTTGGATGGGTTGA [3d1293]” gave a fraction ligated of 0.783.

Sequence “TATCACTGCGAAGACACTTTGGATGGGTTGA [3d1329]” showed a fraction ligated of 0.831.

Sequence “TATCACTGCGTAAACACTTTGGATGGGTTGA [3d1331]” had a fraction ligated of 0.838.

The sequence “TATCACTGCGTAAGAACTTTGGATGGGTTGA [3d1333]” displayed a fraction ligated of 0.842.

In turn, “TATCACTGCGTAAGACACTTGGATGGGTTGA [3d1336]” gave a fraction ligated of 0.793.

The sequence “TATCACTGCGTAAGACACTTTGATGGGTTGA [3d1337]” returned a fraction ligated of 0.763.

Consider “TATCACTGCGTAAGACACTTTGGAGGGTTGA [3d1339]”, for which the fraction ligated is 0.0829.

Consider “TATCACTGCGTAAGACACTTTGGATGGGTTA [3d1341]”, for which the fraction ligated came to 0.803.

Turning to “TATCACTGCGTAAGACACTTTGGATGGGTTG [3d1342]”, the fraction ligated was found to be 0.834.

On to “TATCACTGCGTAAGACACTTTGGATGGGTTGA [2d130]”, for which the fraction ligated stood at 0.851.

“TATCACTGCGTAAGACACTTTGGATGGTTGA [3d1340]” had a fraction ligated of 0.15.

The sequence “TATCACTGCGTAAGACACTTTGGTGGGTTGA [3d1338]” registered a fraction ligated of 0.119.

Regarding “TATCACTGCGTAAGACATTTGGATGGGTTGA [3d1335]”, the fraction ligated was 0.854.

The sequence “TATCACTGCGTAAGACCTTTGGATGGGTTGA [3d1334]” returned a fraction ligated of 0.857.

Consider “TATCACTGCGTAAGCACTTTGGATGGGTTGA [3d1332]”, for which the fraction ligated was determined as 0.826.

Regarding TATCACTGCGTAAGCCTTTGGATGGGTTGA [s2], the fraction ligated was 0.814.

With “TATCACTGCGTAGACACTTTGGATGGGTTGA [3d1330]”, the fraction ligated stood at 0.862.

The sequence “TATCACTGCTAAGACACTTTGGATGGGTTGA [3d1328]” displayed a fraction ligated of 0.81.

The sequence “TATCACTGGTAAGACACTTTGGATGGGTTGA [3d1327]” displayed a fraction ligated of 0.828.

With “TATCACTGTCAAGACACTTTGGATGGGTTGA [3d1358]”, the fraction ligated is 0.817.

“TATCACTGTCGAAACACTTTGGATGGGTTGA [3d1373]” showed a fraction ligated of 0.83.

In turn, “TATCACTGTCGAAGAACTTTGGATGGGTTGA [3d1375]” yielded a fraction ligated of 0.846.

“TATCACTGTCGAAGACACTTGGATGGGTTGA [3d1378]” gave a fraction ligated of 0.812.

Sequence “TATCACTGTCGAAGACACTTTGATGGGTTGA [3d1379]” came in with a fraction ligated of 0.75.

“TATCACTGTCGAAGACACTTTGGAGGGTTGA [3d1381]” returned a fraction ligated of 0.104.

In turn, “TATCACTGTCGAAGACACTTTGGATGGGTTA [3d1383]” yielded a fraction ligated of 0.75.

Consider “TATCACTGTCGAAGACACTTTGGATGGGTTG [3d1384]”, for which the fraction ligated is 0.829.

The sequence “TATCACTGTCGAAGACACTTTGGATGGGTTGA [2d133]” gave a fraction ligated of 0.835.

The sequence “TATCACTGTCGAAGACACTTTGGATGGTTGA [3d1382]” came in with a fraction ligated of 0.336.

“TATCACTGTCGAAGACACTTTGGTGGGTTGA [3d1380]” gave a fraction ligated of 0.369.

In the case of “TATCACTGTCGAAGACATTTGGATGGGTTGA [3d1377]”, the fraction ligated was 0.841.

Sequence “TATCACTGTCGAAGACCTTTGGATGGGTTGA [3d1376]” yielded a fraction ligated of 0.798.

“TATCACTGTCGAAGCACTTTGGATGGGTTGA [3d1374]” had a fraction ligated of 0.826.

Take “TATCACTGTCGAGACACTTTGGATGGGTTGA [3d1372]”: the fraction ligated was found to be 0.826.

As to “TATCACTGTCGTAAAACTTTGGATGGGTTGA [3d1398]”, the fraction ligated was found to be 0.842.

The sequence “TATCACTGTCGTAAACACTTGGATGGGTTGA [3d1401]” had a fraction ligated of 0.794.

Sequence “TATCACTGTCGTAAACACTTTGATGGGTTGA [3d1402]” showed a fraction ligated of 0.669.

Sequence “TATCACTGTCGTAAACACTTTGGAGGGTTGA [3d1404]” registered a fraction ligated of 0.0511.

In the case of “TATCACTGTCGTAAACACTTTGGATGGGTTA [3d1406]”, the fraction ligated was determined as 0.761.

In the case of “TATCACTGTCGTAAACACTTTGGATGGGTTG [3d1407]”, the fraction ligated is 0.83.

Sequence “TATCACTGTCGTAAACACTTTGGATGGTTGA [3d1405]” came in with a fraction ligated of 0.166.

The sequence “TATCACTGTCGTAAACACTTTGGTGGGTTGA [3d1403]” showed a fraction ligated of 0.086.

“TATCACTGTCGTAAACATTTGGATGGGTTGA [3d1400]” yielded a fraction ligated of 0.822.

In the case of “TATCACTGTCGTAAACCTTTGGATGGGTTGA [3d1399]”, the fraction ligated was 0.806.

Consider “TATCACTGTCGTAACACTTTGGATGGGTTGA [3d1386]”, for which the fraction ligated was found to be 0.826.

Turning to “TATCACTGTCGTAAGAACTTGGATGGGTTGA [3d1419]”, the fraction ligated stood at 0.847.

For “TATCACTGTCGTAAGAACTTTGATGGGTTGA [3d1420]”, the fraction ligated is 0.652.

The sequence “TATCACTGTCGTAAGAACTTTGGAGGGTTGA [3d1422]” gave a fraction ligated of 0.0317.

Consider “TATCACTGTCGTAAGAACTTTGGATGGGTTA [3d1424]”, for which the fraction ligated is 0.851.

For “TATCACTGTCGTAAGAACTTTGGATGGGTTG [3d1425]”, the fraction ligated was 0.87.

Turning to “TATCACTGTCGTAAGAACTTTGGATGGTTGA [3d1423]”, the fraction ligated stood at 0.26.

Sequence “TATCACTGTCGTAAGAACTTTGGTGGGTTGA [3d1421]” yielded a fraction ligated of 0.079.

The sequence “TATCACTGTCGTAAGAATTTGGATGGGTTGA [3d1418]” yielded a fraction ligated of 0.804.

Regarding “TATCACTGTCGTAAGACACTGGATGGGTTGA [3d1440]”, the fraction ligated came to 0.824.

“TATCACTGTCGTAAGACACTTGATGGGTTGA [3d1441]”: the fraction ligated amounted to 0.77.

In turn, “TATCACTGTCGTAAGACACTTGGAGGGTTGA [3d1443]” had a fraction ligated of 0.0736.
